Structures can show the parent of a compound that is named as a salt. Starred links: 1 amine or outer side, 2 acyl side, 3 side chain; linkers in the order of their positions; H or OH if unused. Positions of bridges follow the written chain, without caps; N, C: chain ends. Non-standard residues stand in square brackets, D forms with d. Residues, ends and D or L forms follow the SMILES beside them. Chains are numbered I, II in the order given. *: point of attachment. TATA = O=C(CC[*:1])N1CN(C(=O)CC[*:2])CN(C(=O)CC[*:3])C1; Dolaproine = CO[C@@H]([C@@H]1CCCN1)[C@@H](C)C(=O)O; Dil = CC[C@H](C)[C@H](NC)[C@@H](CC(=O)O)OC; X2 = O=C(CCCC(=O)[*:2])NCCC(=O)[*:1]; PABC = O=C(OCc1ccc(N[*:1])cc1)[*:2]; X1 = C[C@@H](N*)[C@@H](O)c1ccccc1; Hyp = O=C(O)[C@@H]1C[C@@H](O)CN1; hArg = N=C(N)NCCCC[C@H](N)C(=O)O; Cit = NC(=O)NCCC[C@H](N)C(=O)O; Pen = CC(C)(S)[C@H](N)C(=O)O; NMeV = CN[C@H](C(=O)O)C(C)C; Sar = CNCC(=O)O A value given as a limit tells only on which side of the number the result lay.

Series [1] in a line: Pharmacokinetic analysis in Cynomolgus macaque plasma. The format is in vivo, Cynomolgus macaques. The note with it: cynomolgus monkey, in vivo, Cynomolgus macaques, single IV 1 mg/kg, plasma. As to the method: To test the pharmacokinetics of the compounds of the present invention in Cynomolgus macaques.
The pharmacokinetic characteristics of the compound after intravenous injection and oral administration were tested in Cynomolgus macaques according to a standard protocol. The compound of the present invention was formulated into a clear solution using 50 mM acetate buffer (pH=5) in 10% sucrose as a vehicle. Two Cynomolgus macaques were given a single intravenous injection of 1 mg/kg of the compound to be tested. Whole blood was collected at time points of 0.083, 0.25, 0.5, 1, 2, 4, 8, and 24 hours after administration to get plasma. The concentration of the compound to be tested and the concentration of its potential metabolite MMAE were analyzed by the LC-MS/MS method, and the pharmacokinetic parameters were calculated by Phoenix WinNonlin software.

Series [2] can be described thus: Stability in plasma. The class given is in vitro ADME, Humans. The conditions noted are these: human plasma, 2 μM, 37° C., up to 240 min. As to the method:
(§1) To test the stability of the compounds of the present invention in plasma from rats, Cynomolgus macaques, and humans.
(§2) The corresponding incubation plates, including T0, T10, T30, T60, T120, and T240 incubation plates, were added with a 2 μL working solution of the compound to be tested (100 μM). Three parallel wells were prepared for each sample. Then, 98 μL of blank plasma from SD rats, Cynomolgus macaques, and humans was added to the corresponding incubation plates to which the working solution had been added. All samples were incubated in a 37° C. water bath. […] At the end of each incubation time point, the corresponding incubation plate was removed, added with stop buffer, precipitated, and centrifuged for 20 minutes. Then, 150 μL of the supernatant was analyzed by the LC-MS/MS method. The concentration of the compound to be tested in the sample was semi-quantitatively determined by the liquid chromatography-tandem mass spectrometry (LC-MS/MS) method.

The nature of series [3]: Metabolic stability in hepatocytes. The format is in vitro ADME, Cynomolgus macaques. The conditions noted are these: Cynomolgus macaque hepatocytes, 1 μM, 0.5×10^6 cells/mL. As to the method: To investigate the metabolic stability of the compounds of the present invention in hepatocytes from Cynomolgus macaques and humans.
Incubations were performed in 96-well plates using an external extraction method. Several 96-well sample precipitation plates, designated T0, T15, T30, T60, T90, T0-MC, T90-MC, and blank matrix, were prepared, respectively. The recovery culture medium and incubation culture medium were removed in advance and placed in a 37° C. water bath for preheating. Frozen hepatocytes from Cynomolgus macaques and humans were removed from a liquid nitrogen tank, recovered, and diluted to 0.51×10^6 cells/mL with the incubation culture medium. […]
At the end of the incubation at the corresponding time point, the incubation plates were removed, from which 25 μL of a compound mixture with the cells was removed and added to sample plates containing 125 μL of stop buffer. […] All samples were mixed uniformly and then analyzed by the LC-MS/MS method.
The concentration of the compound of the present invention in the sample was semi-quantitatively determined by the liquid chromatography-tandem mass spectrometry (LC-MS/MS) method without a standard curve and quality control sample. […]

Series [4] in a line: Pharmacokinetic analysis in rat plasma at different doses (6.2). The format is in vivo, SD rats. The note with it: rat, in vivo, male SD rats. As to the method:
Experimental purpose: To test the pharmacokinetics of the compounds of the present invention in SD rats.
6.2 The pharmacokinetic characteristics of the compound after intravenous injection and oral administration were tested in rats according to a standard protocol. The compound to be tested was formulated into a clear solution using 50 mM acetate buffer (pH=5) in 10% sucrose as a vehicle. Three male SD rats were given a single intravenous injection of 2.5 mg/kg, 3.75 mg/kg, or 5 mg/kg of the compound to be tested. Whole blood was collected at time points of 0.083, 0.25, 0.5, 1, 4, and 24 hours after administration to get plasma. The concentration of the compound to be tested and the concentration of its potential metabolite MMAE were analyzed by the LC-MS/MS method, and the pharmacokinetic parameters were calculated.

Series [5] in a line: Stability in plasma. The class given is in vitro ADME, Cynomolgus macaques. The note with it: Cynomolgus macaque plasma, 2 μM, 37° C., up to 240 min. As to the method:
as §1, §2

What is called AUC(0-t) is the area under the concentration-time curve up to a stated or last time point. A low value points to low exposure. In general, clearance refers to a measure of how efficiently the substance is removed, as volume per time. The low end stands for a low capacity for elimination, the high end for a high capacity for elimination. One may read the half-life as the time in which the quantity being followed falls by half. A word on the Cmax: it is the peak of the concentration-time curve. Take `CC[C@H](C)[C@@H]([C@@H](CC(=O)N1CCC[C@H]1[C@H](OC)[C@@H](C)C(=O)N[C@H](C)[C@@H](O)c1ccccc1)OC)N(C)C(=O)[C@@H](NC(=O)[C@H](C(C)C)N(C)C(=O)OCc1ccc(NC(=O)[C@H](CCCNC(N)=O)NC(=O)[C@@H](NC(=O)CCCC(=O)NCCC(=O)N(C)CC(=O)N(C)CC(=O)N(C)CC(=O)N(C)CC(=O)N(C)CC(=O)N(C)CC(=O)N(C)CC(=O)N(C)CC(=O)N(C)CC(=O)N(C)CC(=O)N[C@H]2CCCCNC(=O)C[C@@H](C(=O)N[C@H]3CSCCC(=O)N4CN5CN(C4)C(=O)CCSC(C)(C)[C@@H](C(N)=O)NC(=O)[C@H](CCCCNC(=N)N)NC(=O)[C@H](Cc4c[nH]c6ccccc46)NC(=O)[C@@H](CC(=O)O)NC(=O)[C@@H]4CCCN4C(=O)[C@H](Cc4c[nH]cn4)NC(=O)[C@H](CC(C)C)NC(=O)[C@H](CSCCC5=O)NC(=O)[C@H](CC(C)C)NC(=O)[C@@H]4CCCN4C(=O)[C@H](CC(N)=O)NC(=O)[C@H](C(C)C)NC(=O)[C@H](CC(C)C)NC(=O)[C@@H]4C[C@@H](O)CN4C3=O)NC(=O)[C@H](CCCCNC(=N)N)NC2=O)C(C)C)cc1)C(C)C` [Acetate salt of PDC_8] (I: [Sar][Sar][Sar][Sar][Sar][Sar][Sar][Sar][Sar][Sar]K[hArg]DC[Hyp]LVNPLCLHP[dD]W[hArg][Pen]-NH2 / II: V[Cit][PABC][NMeV]V[Dil][Dolaproine]-X1; lactam I:11-I:13; linker I:14-I:21-I:28 via TATA; linker I:N-II:N via X2): the AUC(0-t) in series [1] stood at 0.651 µM·h; in series [4] (single IV 2.5 mg/kg), 0.765 µM·h; in series [4] (single IV 3.75 mg/kg), 3.09 µM·h; in series [4] (single IV 5 mg/kg), 5.65 µM·h. In series [1], this compound had a C0 of 2470 nM. This compound gave a clearance in series [1] of 5.72 mL/min/kg. Besides, the half-life in series [1] was 0.31 h; in the series “Stability in plasma [2]” it was more than 9.63 h; in series [3] it was more than 3.61 h; in the series “Stability in plasma [5]” it was more than 9.63 h. In series [1] (read-out: Vdss), the Vd stood at 0.12 L/kg. For the same compound, the CLint scaled in series [3] (read-out: CLint (liver)) is less than 23 mL/min/kg. In addition, the Cmax was determined as 1960 nM in series [4] (single IV 2.5 mg/kg), 2750 nM in series [4] (single IV 3.75 mg/kg) and 4590 nM in series [4] (single IV 5 mg/kg).

For the origin of these results see US20250121076A1, “POLYPEPTIDE DRUG CONJUGATE HAVING NOVEL STRUCTURE AND APPLICATION THEREOF” (MEDSHINE DISCOVERY INC., priority 2021, published 2025).
